± gives the uncertainty stated by the source.
Test: self-splicing fitness, log relative to wild type (ln ratio); higher = more splicing; Tetrahymena group I intron in knt gene, E. coli kanamycin selection, DiMSum; sequences stand for … in CUCUCU…GGAGGGAAAAGUUAUCAGGCAUGCACCUGGUAGCUAGUCUUUAAACCAAUAGAUUGCAUCGGUUUAAAAGGCAAGACCGUCAAAUUGCGGGAAAGGGGUCAACAGCCGUUCAGUACCAAGUCUCAGGGGAAACUUUGAGAUGGCCUUGCAAAGGGUAUGGUAAUAAGCUGACGGACAUGGUCCUAACCACGCAGCCAAGUCCUAAGUCAACAGAUCUUCUGUUGAUAUGGAUGCAGUUCACAGACUAAAUGUCGGUCGGGGAAGAUGUAUUCUUCUCAUAAGAUAUAGUCGGACCUCUCCUUAAUGGGAGCUAGCGGAUGAAGUGAUGCAACACUGGAGCCGCUGGGAACUAAUUUGUAUGCGAAAGUAUAUUGAUUAGUUUUGGAGUACUCGUGGUCG
How it was run: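 Colonies from six replicate transformations of E. coli BL21(DE3) were pooled and amplicon-sequenced on an Illumina HiSeq 2500. The library placed an intron with all eight P1ex-region nucleotides randomised inside the knt kanamycin-resistance gene on pET-22b(+), and cells grew overnight at 37°C or 30°C on LB agar with or without 25 μg/mL kanamycin (plus 100 μg/mL carbenicillin, 50 μM IPTG, 0.2% rhamnose). Fitness is the DiMSum error-weighted combination of wild-type-normalised replicate fold changes, kanamycin versus none.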

In the case of GCAAAGCAAUAUUACGUGAU, the “self-splicing fitness (ln)” value (30 °C) is reported as -0.863 ± 0.053 and the “self-splicing fitness (ln)” value (37 °C) is reported as -0.973 ± 0.075.

For UCACAGCAAUAUUACGCAUG, the “self-splicing fitness (ln)” value (30 °C) was -2.04 ± 0.098 and the “self-splicing fitness (ln)” value (37 °C) was -1.58 ± 0.098.

For CCACAGCAAUAUUACGUGCU, the “self-splicing fitness (ln)” value (30 °C) was -3.61 ± 0.17 and the “self-splicing fitness (ln)” value (37 °C) was -2.88 ± 0.17.

With GUUUAGCAAUAUUACGUCCG the “self-splicing fitness (ln)” value (30 °C) was -2.86 ± 0.2 and the “self-splicing fitness (ln)” value (37 °C) was -1.89 ± 0.29.

With CGAUAGCAAUAUUACGCAAG the “self-splicing fitness (ln)” value (30 °C) was -1.97 ± 0.13 and the “self-splicing fitness (ln)” value (37 °C) was -0.614 ± 0.11.

In the case of GAAGAGCAAUAUUACGCCCU, the “self-splicing fitness (ln)” value (30 °C) is reported as -2.24 ± 0.22 and the “self-splicing fitness (ln)” value (37 °C) is reported as -1.38 ± 0.31.

With AACCAGCAAUAUUACGUCGC the “self-splicing fitness (ln)” value (30 °C) was -2.34 ± 0.077 and the “self-splicing fitness (ln)” value (37 °C) was -0.689 ± 0.085.

For AAUGAGCAAUAUUACGAAGU, the “self-splicing fitness (ln)” value (37 °C) was -2.16 ± 0.33.

In the case of GUGCAGCAAUAUUACGUUUG, the “self-splicing fitness (ln)” value (30 °C) is reported as -1.76 ± 0.17 and the “self-splicing fitness (ln)” value (37 °C) is reported as -2.63 ± 0.27.

For AGUCAGCAAUAUUACGAGUC, the “self-splicing fitness (ln)” value (30 °C) was -2.45 ± 0.11 and the “self-splicing fitness (ln)” value (37 °C) was -1.09 ± 0.11.

In the case of CUGUAGCAAUAUUACGGGCG, the “self-splicing fitness (ln)” value (30 °C) is reported as -1.86 ± 0.09 and the “self-splicing fitness (ln)” value (37 °C) is reported as -0.334 ± 0.11.

In the case of GGACAGCAAUAUUACGCAGC, the “self-splicing fitness (ln)” value (30 °C) is reported as -1.1 ± 0.083 and the “self-splicing fitness (ln)” value (37 °C) is reported as -0.558 ± 0.085.

With CUUGAGCAAUAUUACGAUGC the “self-splicing fitness (ln)” value (30 °C) was -3.25 ± 0.3 and the “self-splicing fitness (ln)” value (37 °C) was -2.5 ± 0.41.

For AGAGAGCAAUAUUACGAAGG, the “self-splicing fitness (ln)” value (30 °C) was -3.13 ± 0.39 and the “self-splicing fitness (ln)” value (37 °C) was -1.42 ± 0.37.

With AAUUAGCAAUAUUACGUAUU the “self-splicing fitness (ln)” value (30 °C) was -2.32 ± 0.18 and the “self-splicing fitness (ln)” value (37 °C) was -0.913 ± 0.14.

For CAGAAGCAAUAUUACGAGAA, the “self-splicing fitness (ln)” value (37 °C) was -2.3 ± 0.35.

For UGACAGCAAUAUUACGAACA, the “self-splicing fitness (ln)” value (30 °C) was -0.232 ± 0.081 and the “self-splicing fitness (ln)” value (37 °C) was -0.06 ± 0.087.

For CUAUAGCAAUAUUACGGAAU, the “self-splicing fitness (ln)” value (30 °C) was -3.5 ± 0.4.

In the case of CAGCAGCAAUAUUACGCGUG, the “self-splicing fitness (ln)” value (30 °C) is reported as -3.2 ± 0.18 and the “self-splicing fitness (ln)” value (37 °C) is reported as -1.92 ± 0.15.

In the case of UGGGAGCAAUAUUACGCGCG, the “self-splicing fitness (ln)” value (30 °C) is reported as -1.51 ± 0.3 and the “self-splicing fitness (ln)” value (37 °C) is reported as -0.924 ± 0.35.

For UUAGAGCAAUAUUACGCCUA, the “self-splicing fitness (ln)” value (30 °C) was -0.268 ± 0.13 and the “self-splicing fitness (ln)” value (37 °C) was -0.0554 ± 0.19.

For AACUAGCAAUAUUACGUCUA, the “self-splicing fitness (ln)” value (30 °C) was -0.702 ± 0.097 and the “self-splicing fitness (ln)” value (37 °C) was -0.347 ± 0.1.

With CCAAAGCAAUAUUACGUCUA the “self-splicing fitness (ln)” value (30 °C) was -3.06 ± 0.23 and the “self-splicing fitness (ln)” value (37 °C) was -2.06 ± 0.21.

For ACUAAGCAAUAUUACGGCAA, the “self-splicing fitness (ln)” value (30 °C) was -0.655 ± 0.089 and the “self-splicing fitness (ln)” value (37 °C) was -0.133 ± 0.1.

In the case of UCCGAGCAAUAUUACGUACA, the “self-splicing fitness (ln)” value (30 °C) is reported as -2.89 ± 0.33.

For UUCGAGCAAUAUUACGGAAU, the “self-splicing fitness (ln)” value (30 °C) was -3.13 ± 0.18 and the “self-splicing fitness (ln)” value (37 °C) was -2.87 ± 0.27.

In the case of GGUUAGCAAUAUUACGAUAG, the “self-splicing fitness (ln)” value (30 °C) is reported as -1.82 ± 0.28 and the “self-splicing fitness (ln)” value (37 °C) is reported as -1.14 ± 0.32.

For CACUAGCAAUAUUACGGGGU, the “self-splicing fitness (ln)” value (30 °C) was -3.32 ± 0.19 and the “self-splicing fitness (ln)” value (37 °C) was -2.37 ± 0.2.

For UAGAAGCAAUAUUACGGUCC, the “self-splicing fitness (ln)” value (30 °C) was -1.92 ± 0.22 and the “self-splicing fitness (ln)” value (37 °C) was -1.57 ± 0.2.

With UGUAAGCAAUAUUACGAGCU the “self-splicing fitness (ln)” value (30 °C) was -0.434 ± 0.16 and the “self-splicing fitness (ln)” value (37 °C) was 0.293 ± 0.16.

In the case of AACGAGCAAUAUUACGAGCG, the “self-splicing fitness (ln)” value (30 °C) is reported as -2.76 ± 0.19 and the “self-splicing fitness (ln)” value (37 °C) is reported as -2.55 ± 0.2.

In the case of UCUAAGCAAUAUUACGAAAG, the “self-splicing fitness (ln)” value (30 °C) is reported as -2.88 ± 0.17 and the “self-splicing fitness (ln)” value (37 °C) is reported as -2.03 ± 0.18.

In the case of AGGUAGCAAUAUUACGCGAA, the “self-splicing fitness (ln)” value (30 °C) is reported as -1.61 ± 0.017 and the “self-splicing fitness (ln)” value (37 °C) is reported as -0.832 ± 0.035.

With CUAAAGCAAUAUUACGCGCC the “self-splicing fitness (ln)” value (30 °C) was -2.84 ± 0.23 and the “self-splicing fitness (ln)” value (37 °C) was -2.6 ± 0.4.

Reference: the supplement of paper PMC7877785
